Experimental data: patent publication US20200261595A1 (Novo Nordisk, published 2020)
Changes are numbered by the printed parent chain. In names and notes the source's numbering stands. Each block holds one binder with its values, some of them ahead of it.

What was measured:
[1] = molecular target: insulin receptor A (UniProt P06213-2 28-1370, limits assumed); assay: insulin receptor binding assay as in Vienberg et al. 2011; relative to human insulin on insulin receptor A (100%)
[2] = molecular target: insulin receptor of isolated rat adipocytes (rat, UniProt P15127 27-1383); assay: cell-based or functional assay
Sequence of insulin receptor of isolated rat adipocytes (P15127 27-1383): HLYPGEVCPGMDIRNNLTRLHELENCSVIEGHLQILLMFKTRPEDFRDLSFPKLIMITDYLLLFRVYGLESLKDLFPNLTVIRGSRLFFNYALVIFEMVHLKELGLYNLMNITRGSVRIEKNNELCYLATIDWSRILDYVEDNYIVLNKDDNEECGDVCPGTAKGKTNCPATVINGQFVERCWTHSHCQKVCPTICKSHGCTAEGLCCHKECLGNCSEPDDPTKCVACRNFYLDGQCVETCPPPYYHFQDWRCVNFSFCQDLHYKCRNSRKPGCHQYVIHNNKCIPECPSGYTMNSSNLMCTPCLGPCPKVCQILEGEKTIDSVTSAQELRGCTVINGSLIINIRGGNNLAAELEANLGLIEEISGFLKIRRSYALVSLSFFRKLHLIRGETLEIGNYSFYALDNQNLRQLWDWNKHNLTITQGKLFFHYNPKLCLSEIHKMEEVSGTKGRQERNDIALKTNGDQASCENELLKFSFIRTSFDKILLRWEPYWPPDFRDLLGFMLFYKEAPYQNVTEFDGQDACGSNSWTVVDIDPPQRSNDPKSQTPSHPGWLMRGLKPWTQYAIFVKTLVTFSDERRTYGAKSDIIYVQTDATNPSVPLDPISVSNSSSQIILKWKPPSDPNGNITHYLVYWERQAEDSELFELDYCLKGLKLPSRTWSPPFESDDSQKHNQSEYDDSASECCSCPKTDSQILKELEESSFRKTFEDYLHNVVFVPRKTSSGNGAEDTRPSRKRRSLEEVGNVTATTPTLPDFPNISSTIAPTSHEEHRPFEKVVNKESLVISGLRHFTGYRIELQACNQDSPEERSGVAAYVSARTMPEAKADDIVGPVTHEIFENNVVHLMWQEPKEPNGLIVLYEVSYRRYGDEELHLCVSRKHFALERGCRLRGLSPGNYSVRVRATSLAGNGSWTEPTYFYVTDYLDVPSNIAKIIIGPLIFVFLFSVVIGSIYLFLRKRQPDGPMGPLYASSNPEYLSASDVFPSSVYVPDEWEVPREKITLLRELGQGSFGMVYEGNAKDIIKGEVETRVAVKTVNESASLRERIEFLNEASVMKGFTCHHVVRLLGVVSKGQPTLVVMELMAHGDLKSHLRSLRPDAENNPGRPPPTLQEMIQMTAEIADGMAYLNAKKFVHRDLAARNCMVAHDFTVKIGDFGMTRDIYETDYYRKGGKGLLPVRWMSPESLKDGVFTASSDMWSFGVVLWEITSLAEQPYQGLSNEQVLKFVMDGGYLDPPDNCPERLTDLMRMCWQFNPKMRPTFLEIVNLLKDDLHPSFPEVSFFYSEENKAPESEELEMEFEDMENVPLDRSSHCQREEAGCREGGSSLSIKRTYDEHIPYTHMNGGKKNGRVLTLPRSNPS

Sequence of insulin receptor A (P06213 other isoform, or with tags, fused parts or gaps limits assumed): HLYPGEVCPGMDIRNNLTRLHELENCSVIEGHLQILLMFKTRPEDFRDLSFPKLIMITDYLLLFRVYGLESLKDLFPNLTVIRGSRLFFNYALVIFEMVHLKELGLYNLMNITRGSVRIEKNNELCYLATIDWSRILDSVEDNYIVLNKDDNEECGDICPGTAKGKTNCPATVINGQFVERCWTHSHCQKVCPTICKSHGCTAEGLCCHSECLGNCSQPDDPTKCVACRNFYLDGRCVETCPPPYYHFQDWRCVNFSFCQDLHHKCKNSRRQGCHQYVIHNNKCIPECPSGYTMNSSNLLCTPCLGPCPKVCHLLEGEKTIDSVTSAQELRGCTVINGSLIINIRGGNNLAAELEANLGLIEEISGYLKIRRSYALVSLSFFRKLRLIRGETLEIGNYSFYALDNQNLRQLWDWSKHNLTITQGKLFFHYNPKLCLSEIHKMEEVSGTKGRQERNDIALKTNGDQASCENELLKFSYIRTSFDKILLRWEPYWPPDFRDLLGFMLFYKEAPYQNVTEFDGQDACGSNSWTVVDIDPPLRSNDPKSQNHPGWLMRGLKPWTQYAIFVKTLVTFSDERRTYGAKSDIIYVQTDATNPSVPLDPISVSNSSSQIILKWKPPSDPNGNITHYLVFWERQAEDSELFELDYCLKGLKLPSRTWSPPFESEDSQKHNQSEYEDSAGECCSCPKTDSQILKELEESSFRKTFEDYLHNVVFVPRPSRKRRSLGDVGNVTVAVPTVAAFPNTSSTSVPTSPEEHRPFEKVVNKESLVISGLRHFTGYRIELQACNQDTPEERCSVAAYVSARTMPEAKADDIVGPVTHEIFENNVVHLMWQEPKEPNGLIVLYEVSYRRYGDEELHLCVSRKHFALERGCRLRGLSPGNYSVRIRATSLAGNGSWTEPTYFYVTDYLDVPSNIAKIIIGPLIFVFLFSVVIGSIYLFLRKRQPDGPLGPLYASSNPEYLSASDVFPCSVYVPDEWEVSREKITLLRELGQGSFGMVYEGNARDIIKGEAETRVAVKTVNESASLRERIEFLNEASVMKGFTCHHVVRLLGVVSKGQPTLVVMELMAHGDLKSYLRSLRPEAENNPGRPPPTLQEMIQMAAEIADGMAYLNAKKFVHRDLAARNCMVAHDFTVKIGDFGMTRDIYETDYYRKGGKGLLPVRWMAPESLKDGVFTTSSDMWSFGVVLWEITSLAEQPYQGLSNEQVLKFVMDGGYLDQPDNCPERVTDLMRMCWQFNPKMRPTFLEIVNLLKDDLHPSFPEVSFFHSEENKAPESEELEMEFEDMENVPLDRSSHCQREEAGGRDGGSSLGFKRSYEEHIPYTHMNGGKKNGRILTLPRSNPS

B1: A14E, A21G, A22(GQAPGQAPGQEP)6-GQAP, A98K^, A99P, B3Q, B25H, B29R, desB30 human insulin/(227A, 234A, 235K, 297E, 315Q, 384Q, des447 hIgG4-Fc(228-447)) … (other)
chain 1: GIVEQCCTSICSLEQLENYCGGQAPGQAPGQEPGQAPGQAPGQEPGQAPGQAPGQEPGQAPGQAPGQEPGQAPGQAPGQEPGQAPGQAPGQEPGQAPKP
chain 2: FVQQHLCGSHLVEALYLVCGERGFHYTPR
chain 3: ASCPAPEAKGGPSVFLFPPKPKDTLMISRTPEVTCVVVDVSQEDPEVQFNWYVDGVEVHNAKTKPREEQFESTYRVVSVLTVLHQDWLQGKEYKCKVSNKGLPSSIEKTISKAKGQPREPQVYTLPPSQEEMTKNQVSLTCLVKGFYPSDIAVEWESQGQPENNYKTTPPVLDSDGSFFLYSRLTVDKSRWQEGNVFSCSVMHEALHNHYTQKSLSLSLG
modifications: Cys229 (EU numbering) sulphur bound to an acetyl arm of the linker; A98K N(eps) acylated by the trivalent linker 4-[bis[2-[(2-acetyl)amino]ethyl]amino]-4-oxo-butanoyl
notes: also called Ex 5.13
- Insulin receptor affinity [IC50 relative to HI (%)] [1]: 5.55%
- Lipogenesis in rat adipocytes [Potency (%)] Mean Value [2]: 3.07 % of human insulin

B2: (A14E, A21G, A22(GQAP)19, A98K^, A99P, B25H, B29R, desB30 human insulin)/(227A, 234A, 235K, 297E, 315Q, 384Q, des447 hIgG4-Fc(228-447)) … (other)
chain 1: B1 chain 1 with E32A, E44A, E56A, E68A, E80A, E92A
chain 2: FVNQHLCGSHLVEALYLVCGERGFHYTPR
chain 3: B1 chain 3
modifications: Cys229 (EU numbering) sulphur bound to an acetyl arm of the linker; A98K N(eps) acylated by the trivalent linker 6-[bis[2-[(2-acetyl)amino]ethyl]amino]-6-oxo-hexanoyl
notes: also called Ex 5.16
- Insulin receptor affinity [IC50 relative to HI (%)] [1]: 3.86%
- Lipogenesis in rat adipocytes [Potency (%)] Mean Value [2]: 4.34 % of human insulin

B5: A14E, A21G, A22(GQEP)6, A46K^, A47P, B25H, B29R, desB30 human insulin/(227A, 234A, 235K, 297E, 315Q, 384Q, des447 hIgG4-Fc(228-447)) … (other)
chain 1: GIVEQCCTSICSLEQLENYCGGQEPGQEPGQEPGQEPGQEPGQEPKP
chain 2: FVNQHLCGSHLVEALYLVCGERGFHYTPR
chain 3: B1 chain 3
modifications: Cys229 (EU numbering) sulphur bound to an acetyl arm of the linker; A46K N(eps) acylated by the trivalent linker 4-[bis[2-[(2-acetyl)amino]ethyl]amino]-4-oxo-butanoyl
notes: also called Ex 5.32
- Insulin receptor affinity [IC50 relative to HI (%)] [1]: 2.16%
- Lipogenesis in rat adipocytes [Potency (%)] Mean Value [2]: 3.72 % of human insulin

B6: A14E, A21G, A22(GQAPGQAPGQAPGQEP)6-GQAP, A122K^, A123P, B25H, B29R, desB30 human insulin/(227A, 234A, 235K, 297E, 315Q, 384Q, des447 hIgG4-Fc(228-447)) … (other)
chain 1: GIVEQCCTSICSLEQLENYCGGQAPGQAPGQAPGQEPGQAPGQAPGQAPGQEPGQAPGQAPGQAPGQEPGQAPGQAPGQAPGQEPGQAPGQAPGQAPGQEPGQAPGQAPGQAPGQEPGQAPKP
chain 2: FVNQHLCGSHLVEALYLVCGERGFHYTPR
chain 3: B1 chain 3
modifications: Cys229 (EU numbering) sulphur bound to an acetyl arm of the linker; A122K N(eps) acylated by the trivalent linker 4-[bis[2-[(2-acetyl)amino]ethyl]amino]-4-oxo-butanoyl
notes: also called Ex 5.20
- Insulin receptor affinity [IC50 relative to HI (%)] [1]: 5.49%
- Lipogenesis in rat adipocytes [Potency (%)] Mean Value [2]: 5.41 % of human insulin

B7: A14E, A21G, A22(GQEP)19, A98K^, A99P, B3Q, B25H, B29R, desB30 human insulin/(227A, 234A, 235K, 297E, 315Q, 384Q, des447 hIgG4-Fc(228-447)) … (other)
chain 1: GIVEQCCTSICSLEQLENYCGGQEPGQEPGQEPGQEPGQEPGQEPGQEPGQEPGQEPGQEPGQEPGQEPGQEPGQEPGQEPGQEPGQEPGQEPGQEPKP
chain 2: FVQQHLCGSHLVEALYLVCGERGFHYTPR
chain 3: B1 chain 3
modifications: Cys229 (EU numbering) sulphur bound to an acetyl arm of the linker; A98K N(eps) acylated by the trivalent linker 4-[bis[2-[(2-acetyl)amino]ethyl]amino]-4-oxo-butanoyl
notes: also called Ex 5.2
- Insulin receptor affinity [IC50 relative to HI (%)] [1]: 6.1%
- Lipogenesis in rat adipocytes [Potency (%)] Mean Value [2]: 3.57 % of human insulin

B8: (A14E, A21G, A22(GQAP)18, A94G, A95Q, A96A, A97K^, A98P, B29R, desB30 human insulin)/(227A, 234A, 235K, 297E, 315Q, 384Q, des447 hIgG4-Fc(228-447)) … (other)
chain 1: GIVEQCCTSICSLEQLENYCGGQAPGQAPGQAPGQAPGQAPGQAPGQAPGQAPGQAPGQAPGQAPGQAPGQAPGQAPGQAPGQAPGQAPGQAPGQAKP
chain 2: FVNQHLCGSHLVEALYLVCGERGFFYTPR
chain 3: B1 chain 3
modifications: Cys229 (EU numbering) sulphur bound to an acetyl arm of the linker; A97K N(eps) acylated by the trivalent linker 4-[bis[2-[(2-acetyl)amino]ethyl]amino]-4-oxo-butanoyl
notes: also called Ex 5.26
- Insulin receptor affinity [IC50 relative to HI (%)] [1]: 3.95%
- Lipogenesis in rat adipocytes [Potency (%)] Mean Value [2]: 3.23 % of human insulin

The remaining lines, values ahead:

- Insulin receptor affinity [IC50 relative to HI (%)] [1]: 4.7%
- Lipogenesis in rat adipocytes [Potency (%)] Mean Value [2]: 5.36 % of human insulin
B3: (A14E, A21G, A22(GQAP)24, A118G, A119Q, A120A, A121K^, A122P, B25H, B29R, desB30 human insulin)/(227A, 234A, 235K, 297E, 315Q, 384Q, des447 hIgG4-Fc(228-447)) … (other)
chain 1: GIVEQCCTSICSLEQLENYCGGQAPGQAPGQAPGQAPGQAPGQAPGQAPGQAPGQAPGQAPGQAPGQAPGQAPGQAPGQAPGQAPGQAPGQAPGQAPGQAPGQAPGQAPGQAPGQAPGQAKP
chain 2: FVNQHLCGSHLVEALYLVCGERGFHYTPR
chain 3: B1 chain 3
modifications: Cys229 (EU numbering) sulphur bound to an acetyl arm of the linker; A121K N(eps) acylated by the trivalent linker 4-[bis[2-[(2-acetyl)amino]ethyl]amino]-4-oxo-butanoyl
notes: also called Ex 5.23

- Insulin receptor affinity [IC50 relative to HI (%)] [1]: 3.56%
- Lipogenesis in rat adipocytes [Potency (%)] Mean Value [2]: 4.64 % of human insulin
B4: (A14E, A21G, A22(GQAP)24, A118G, A119Q, A120A, A121K^, A122P, B25H, B29R, desB30 human insulin)/(227A, 234A, 235K, 297E, 315Q, 384Q, des447 hIgG4-Fc(228-447)) … (other)
chain 1: B3 chain 1
chain 2: FVNQHLCGSHLVEALYLVCGERGFHYTPR
chain 3: B1 chain 3
modifications: Cys229 (EU numbering) sulphur bound to an acetyl arm of the linker; A121K N(eps) acylated by the trivalent linker 3,5-bis[(2-acetyl)amino]benzoyl
notes: also called Ex 5.22

- Insulin receptor affinity [IC50 relative to HI (%)] [1]: 1.85%
- Lipogenesis in rat adipocytes [Potency (%)] Mean Value [2]: 2.35 % of human insulin
B9: (A14E, A21G, A22(GQEP)19, A98K^, A99P, B25H, B29R, desB30 human insulin)/(227A, 234A, 235K, 297E, 315Q, 384Q, des447 hIgG4-Fc(228-447)) … (other)
chain 1: B7 chain 1
chain 2: FVNQHLCGSHLVEALYLVCGERGFHYTPR
chain 3: B1 chain 3
modifications: Cys229 (EU numbering) sulphur bound to an acetyl arm of the linker; A98K N(eps) acylated by the trivalent linker 4-[bis[2-[(2-acetyl)amino]ethyl]amino]-4-oxo-butanoyl
notes: also called Ex 5.12

- Insulin receptor affinity [IC50 relative to HI (%)] [1]: 4.6%
- Lipogenesis in rat adipocytes [Potency (%)] Mean Value [2]: 3.83 % of human insulin
B10: A14E, A21G, A22(GQAPGQAPGQEP)6-GQAP, A98K^, A99P, B3Q, B25H, B29R, desB30 human insulin/(227A, 234A, 235K, 297E, 315Q, 384Q, des447 hIgG4-Fc(228-447)) … (other)
chain 1: B1 chain 1
chain 2: FVQQHLCGSHLVEALYLVCGERGFHYTPR
chain 3: B1 chain 3
modifications: Cys229 (EU numbering) sulphur bound to an acetyl arm of the linker; A98K N(eps) acylated by the trivalent linker 4-[bis[2-[(2-acetyl)amino]ethyl]carbamoylamino]butanoyl
notes: also called Ex 5.24
